One assay has as its target T1, hTLT-1 ECD-HPC4 M91A (human, UniProt Q86YW5 16-162).
T1 construct: As m27; also called Ala mutant 24
T1 chain: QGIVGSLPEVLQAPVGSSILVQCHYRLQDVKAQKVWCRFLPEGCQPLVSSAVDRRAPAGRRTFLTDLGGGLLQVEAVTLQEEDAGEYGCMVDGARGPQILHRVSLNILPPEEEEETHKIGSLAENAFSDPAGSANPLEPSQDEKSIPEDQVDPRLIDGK
Briefly: SPR (ProteOn), mAb captured by anti-hFc, 100 nM mutant. On the procedure:
Anti-hFc Polyclonal antibody was immobilized onto separate flow cells of a GLM sensor chip using a 1:1 mixture of 0.4 M EDAC [1-ethyl-3-(3-dimethylaminopropyl) carbodiimide hydrochloride] and 0.1 M Sulfo-NHS [N-hydroxysulfosuccinimide]. Each anti-body was diluted in 10 mM sodium acetate pH 5.0 to a concentration of […], and was immobilized to an individual flow cell at 30 μl/min for 240s. The antibodies were immobilized to flow cells A1-A6 (horizontal direction). After immobilization, the active sites on the flow cell were blocked with 1 M ethanolamine. The final immobilization level of capture antibody typically ranged from approximately 9,000 to 10,000 RU in one experiment. Capture of the anti-TLT1 antibodies 0197-0000-0023, 0197-0000-0051, 0197-0000-0061 and 0197-0000-0062 was conducted by diluting to […] into HBS-EP buffer (10 mM HEPES, 150 mM NaCl, 3 mM EDTA, 0.05% surfactant P20, pH 7.4) and injected at 30 μl/min for 60s in vertical direction, creating interspot reference points with only anti-human Fc antibodies. The final capture level of test antibodies typically ranged from approximately 200 to 300 RU in one experiment. […] Each hTLT-1 ECD-HPC4 protein was diluted to 100 nM, based on the calculated average Mw, into HBS-EP buffer and injected at 30 μl/min for 240s. […]

In assay [1] the target is T2, TLT1 (human TLT-1, reagent of the SPR studies, source NN) (human, UniProt Q86YW5 16-162, limits assumed).
T2 sequence: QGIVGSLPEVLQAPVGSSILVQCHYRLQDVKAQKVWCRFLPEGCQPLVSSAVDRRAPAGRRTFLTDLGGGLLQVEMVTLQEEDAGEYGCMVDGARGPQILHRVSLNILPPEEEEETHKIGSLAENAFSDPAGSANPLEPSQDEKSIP
The experiment in a line: SPR (Biacore), mAb captured via anti-human Fc mAb, TLT1 as analyte. On the procedure:
The mAbs of interest were either immobilized directly to a CM5 chip or by capture via a human Fc capture mAb immobilized to a CM5 chip.
Capture via human Fc mAb: Human Fc mAb was immobilised to approx 10.000 RU. The mAb of interest was added (approx 100 nM). Two-fold dilutions of TLT1 from 200 nM to 0.2 nM were tested. Running and dilution buffer: 10 mM HEPES, 150 mM, 0.005% p20, pH 7.4. Regeneration was obtained in 3 M MgCl₂

One may read the Kd as the constant that tells how readily two partners part at equilibrium. A higher Kd goes with lower affinity. In general, koff refers to the first-order rate constant of dissociation. Usually kon stands for the second-order rate constant of association. Higher therefore signals fast association.

B1: mAb 0061 HC2; LC2 (antibody, V domains shown)
VH: EVKLLESGGGLVQPGGSLKLSCAASGFDFSRYWMTWVRQAPGKGLEWIGEINPDSSTINYNPSLKDKFIISRDNAKNTLYLQMSEVRSEDTALYYCASGVFTSWGQGTLVTVSA
VL: DVVMTQTPLSLPVSLGDQASISCRSSQSLVHRNGNTYFHWALQKPGQSPKLLIYKVSNRFSGVPDRFSGSGSGTDFTLKISRVEAEDLGVYFCSQSTHVPYTFGGGTKLEIKR
notes: also called 0197-0000-0061; 0012HC.T60N + 0012LC.C36A
With B1, the binding result with hTLT-1 ECD-HPC4 M91A is on record as “binds”. In assay [1], this molecule gave an equilibrium dissociation constant (Kd) of 3.75 nM, an off-rate constant (koff) of 0.0035 s⁻¹ and a kon of 932000 M⁻¹ s⁻¹.

(Values after US20120178908A1 (Novo Nordisk, published 2012).)
